From patent US10562947B2, “Compositions and methods for preventing or treating diseases, conditions or processes characterized by aberrant fibroblast proliferation and extracellular matrix deposition” (MOERAE MATRIX, INC., priority 2011, dated 2020)
Where a SMILES comes first, the peptide text is derived from it.

Key:
[1] = system: human fetal lung fibroblasts (IMR-90); experiment: TGF-β1-induced myofibroblast activation in IMR-90 cells, α-SMA immunoblot; type: cell-based; settings: 1 h pre-treatment, TGF-β1 2 ng/ml 48 h
Source text: Cell lysates were immunoblotted against antibodies for α-SMA (a marker for myofibroblast activation) and GAPDH (loading control).

CHK2(I157T)(h) = CHK2(I157T)(h) (Homo sapiens, UniProt O96017, I157T); experiment: Kinase Profiling Assay; type: biochemical; settings: 100 μM peptide
Chain of CHK2(I157T)(h) (O96017 whole entry I157T): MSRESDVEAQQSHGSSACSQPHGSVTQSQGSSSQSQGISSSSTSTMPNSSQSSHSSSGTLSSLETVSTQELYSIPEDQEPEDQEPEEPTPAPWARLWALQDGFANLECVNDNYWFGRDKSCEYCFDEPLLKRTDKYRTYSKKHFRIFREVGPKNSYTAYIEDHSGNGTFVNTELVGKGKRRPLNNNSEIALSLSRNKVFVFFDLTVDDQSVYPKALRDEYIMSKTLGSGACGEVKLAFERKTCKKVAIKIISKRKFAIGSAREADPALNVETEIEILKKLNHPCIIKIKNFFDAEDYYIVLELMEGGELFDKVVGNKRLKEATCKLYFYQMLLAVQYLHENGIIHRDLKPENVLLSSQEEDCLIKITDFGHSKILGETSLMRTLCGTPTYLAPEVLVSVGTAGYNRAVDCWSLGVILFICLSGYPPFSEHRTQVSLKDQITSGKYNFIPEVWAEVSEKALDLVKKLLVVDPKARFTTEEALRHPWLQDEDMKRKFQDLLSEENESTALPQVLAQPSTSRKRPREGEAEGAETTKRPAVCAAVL
Outline: (§1)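 Each kinase in a 266-member human panel is assayed, in duplicate, for activity in the presence of MK2 inhibitory peptides to gauge specificity.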

DYRK2(h) = target: T1, DYRK2(h) (Homo sapiens, UniProt Q92630); experiment: Kinase Profiling Assay; type: biochemical; settings: 100 μM peptide
T1 sequence (Q92630 1-601): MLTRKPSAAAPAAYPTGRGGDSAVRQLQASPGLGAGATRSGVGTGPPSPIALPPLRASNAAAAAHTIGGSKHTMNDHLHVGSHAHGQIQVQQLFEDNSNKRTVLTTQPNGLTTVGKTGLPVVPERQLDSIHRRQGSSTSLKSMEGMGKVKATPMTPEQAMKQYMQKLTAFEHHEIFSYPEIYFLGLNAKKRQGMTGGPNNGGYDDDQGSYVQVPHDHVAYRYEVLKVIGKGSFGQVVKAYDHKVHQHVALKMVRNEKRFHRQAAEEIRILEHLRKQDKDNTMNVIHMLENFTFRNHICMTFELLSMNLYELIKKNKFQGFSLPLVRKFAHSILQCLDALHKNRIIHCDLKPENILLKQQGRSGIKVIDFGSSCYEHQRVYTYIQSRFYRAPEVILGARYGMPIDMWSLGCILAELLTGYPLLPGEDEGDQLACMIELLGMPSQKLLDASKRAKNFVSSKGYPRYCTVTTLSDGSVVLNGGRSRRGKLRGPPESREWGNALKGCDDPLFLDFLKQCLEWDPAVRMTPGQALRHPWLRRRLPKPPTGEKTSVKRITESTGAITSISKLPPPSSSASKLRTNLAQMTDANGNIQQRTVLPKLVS
Outline: as §1

GRK7(h) = target: T2, GRK7(h) (Homo sapiens, UniProt Q8WTQ7); experiment: Kinase Profiling Assay; type: biochemical; settings: 100 μM peptide
T2 construct: purchased Millipore
T2 sequence (Q8WTQ7 1-553): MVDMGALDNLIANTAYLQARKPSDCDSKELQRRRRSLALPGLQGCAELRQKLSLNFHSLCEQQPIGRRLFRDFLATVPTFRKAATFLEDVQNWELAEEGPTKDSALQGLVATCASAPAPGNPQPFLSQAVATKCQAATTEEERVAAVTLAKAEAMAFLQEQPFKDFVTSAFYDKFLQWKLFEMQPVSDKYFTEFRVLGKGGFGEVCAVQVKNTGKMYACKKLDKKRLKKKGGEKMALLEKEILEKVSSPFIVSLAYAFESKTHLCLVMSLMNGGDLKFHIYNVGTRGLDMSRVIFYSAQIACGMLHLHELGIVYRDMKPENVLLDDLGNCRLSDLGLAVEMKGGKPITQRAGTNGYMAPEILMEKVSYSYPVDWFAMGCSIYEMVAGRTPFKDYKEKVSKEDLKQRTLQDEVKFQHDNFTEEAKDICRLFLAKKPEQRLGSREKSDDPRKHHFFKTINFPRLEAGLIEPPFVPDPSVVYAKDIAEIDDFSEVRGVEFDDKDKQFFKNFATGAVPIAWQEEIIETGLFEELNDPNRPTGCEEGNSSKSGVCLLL
Outline: as §1

IKKα(h) = target: T3, IKKα(h) (Homo sapiens, UniProt O15111); experiment: Kinase Profiling Assay; type: biochemical; settings: 100 μM peptide
T3 construct: purchased Millipore
T3 sequence (O15111 1-745): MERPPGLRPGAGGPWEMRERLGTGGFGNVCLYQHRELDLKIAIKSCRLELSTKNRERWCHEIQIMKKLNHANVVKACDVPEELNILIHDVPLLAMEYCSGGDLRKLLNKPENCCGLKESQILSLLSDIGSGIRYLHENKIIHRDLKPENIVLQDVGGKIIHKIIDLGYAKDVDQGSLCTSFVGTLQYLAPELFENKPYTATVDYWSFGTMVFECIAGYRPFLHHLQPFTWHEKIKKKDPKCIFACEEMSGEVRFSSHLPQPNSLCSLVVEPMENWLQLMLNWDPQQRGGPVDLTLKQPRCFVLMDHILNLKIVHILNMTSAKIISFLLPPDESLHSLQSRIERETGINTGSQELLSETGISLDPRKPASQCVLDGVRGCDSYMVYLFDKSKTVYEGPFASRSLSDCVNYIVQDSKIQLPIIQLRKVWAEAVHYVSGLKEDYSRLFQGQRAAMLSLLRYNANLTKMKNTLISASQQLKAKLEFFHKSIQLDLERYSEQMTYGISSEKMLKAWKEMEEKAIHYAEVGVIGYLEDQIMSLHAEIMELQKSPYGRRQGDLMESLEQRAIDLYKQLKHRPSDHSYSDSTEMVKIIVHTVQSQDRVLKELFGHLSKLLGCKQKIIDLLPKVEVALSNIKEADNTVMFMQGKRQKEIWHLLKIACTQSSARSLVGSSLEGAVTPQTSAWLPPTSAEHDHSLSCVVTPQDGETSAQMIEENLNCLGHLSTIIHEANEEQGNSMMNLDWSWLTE
Outline: as §1

Lyn(h) = Lyn(h) (Homo sapiens, UniProt P07948); experiment: Kinase Profiling Assay; type: biochemical; settings: 100 μM peptide
Chain of Lyn(h) (P07948 whole entry): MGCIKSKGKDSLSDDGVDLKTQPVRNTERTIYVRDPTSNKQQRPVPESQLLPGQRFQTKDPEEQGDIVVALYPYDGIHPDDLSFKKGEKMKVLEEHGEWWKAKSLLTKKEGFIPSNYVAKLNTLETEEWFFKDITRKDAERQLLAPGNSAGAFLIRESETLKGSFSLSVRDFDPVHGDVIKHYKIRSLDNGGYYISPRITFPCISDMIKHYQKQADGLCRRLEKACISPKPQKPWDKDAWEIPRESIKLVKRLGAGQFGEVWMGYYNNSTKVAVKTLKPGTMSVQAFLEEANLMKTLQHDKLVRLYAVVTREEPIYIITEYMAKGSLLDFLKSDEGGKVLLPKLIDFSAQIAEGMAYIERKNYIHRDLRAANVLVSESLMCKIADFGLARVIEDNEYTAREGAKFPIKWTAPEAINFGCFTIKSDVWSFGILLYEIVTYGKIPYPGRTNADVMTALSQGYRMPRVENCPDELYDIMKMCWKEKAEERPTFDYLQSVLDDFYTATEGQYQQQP
Outline: as §1

SIK(h) = SIK(h) (Homo sapiens, UniProt P57059); experiment: Kinase Profiling Assay; type: biochemical; settings: 100 μM peptide
Chain of SIK(h) (P57059 whole entry): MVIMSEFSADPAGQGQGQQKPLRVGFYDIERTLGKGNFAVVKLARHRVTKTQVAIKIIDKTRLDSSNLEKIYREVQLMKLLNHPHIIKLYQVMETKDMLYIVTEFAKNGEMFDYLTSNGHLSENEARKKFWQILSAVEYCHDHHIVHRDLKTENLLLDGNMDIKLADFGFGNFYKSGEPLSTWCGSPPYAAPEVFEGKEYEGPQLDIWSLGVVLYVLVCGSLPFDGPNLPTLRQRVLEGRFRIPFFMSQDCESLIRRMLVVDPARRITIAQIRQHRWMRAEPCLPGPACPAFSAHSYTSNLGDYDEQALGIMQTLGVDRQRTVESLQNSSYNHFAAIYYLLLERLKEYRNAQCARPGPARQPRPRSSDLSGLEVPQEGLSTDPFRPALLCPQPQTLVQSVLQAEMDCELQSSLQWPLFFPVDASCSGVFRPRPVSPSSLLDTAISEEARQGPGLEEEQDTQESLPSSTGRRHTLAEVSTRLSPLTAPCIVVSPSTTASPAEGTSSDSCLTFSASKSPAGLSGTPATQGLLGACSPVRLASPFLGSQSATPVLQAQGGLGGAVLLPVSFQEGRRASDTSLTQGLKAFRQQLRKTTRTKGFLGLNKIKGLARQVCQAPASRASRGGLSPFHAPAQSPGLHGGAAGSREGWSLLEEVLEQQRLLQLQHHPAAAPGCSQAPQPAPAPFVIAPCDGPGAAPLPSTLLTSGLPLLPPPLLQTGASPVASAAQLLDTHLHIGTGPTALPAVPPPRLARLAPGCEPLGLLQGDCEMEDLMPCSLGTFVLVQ
Outline: as §1

TSSK1(h) = target: T4, TSSK1(h) (Homo sapiens, UniProt Q9BXA7); experiment: Kinase Profiling Assay; type: biochemical; settings: 100 μM peptide
T4 sequence (Q9BXA7 1-367): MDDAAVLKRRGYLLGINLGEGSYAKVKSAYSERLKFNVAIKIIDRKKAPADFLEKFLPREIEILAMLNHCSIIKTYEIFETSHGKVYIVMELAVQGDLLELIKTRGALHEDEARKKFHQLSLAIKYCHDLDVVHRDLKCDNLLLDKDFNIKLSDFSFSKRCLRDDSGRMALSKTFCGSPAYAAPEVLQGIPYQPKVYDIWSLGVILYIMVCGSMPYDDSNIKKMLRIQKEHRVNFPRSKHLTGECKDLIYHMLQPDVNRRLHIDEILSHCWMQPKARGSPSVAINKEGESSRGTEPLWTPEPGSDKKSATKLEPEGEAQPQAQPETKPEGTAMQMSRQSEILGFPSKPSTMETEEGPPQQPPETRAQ
Outline: as §1

Tie2(Y897S)(h) = Tie2(Y897S)(h) (Homo sapiens, UniProt Q02763, Y897S); experiment: Kinase Profiling Assay; type: biochemical; settings: 100 μM peptide
Chain of Tie2(Y897S)(h) (Q02763 23-1124 Y897S): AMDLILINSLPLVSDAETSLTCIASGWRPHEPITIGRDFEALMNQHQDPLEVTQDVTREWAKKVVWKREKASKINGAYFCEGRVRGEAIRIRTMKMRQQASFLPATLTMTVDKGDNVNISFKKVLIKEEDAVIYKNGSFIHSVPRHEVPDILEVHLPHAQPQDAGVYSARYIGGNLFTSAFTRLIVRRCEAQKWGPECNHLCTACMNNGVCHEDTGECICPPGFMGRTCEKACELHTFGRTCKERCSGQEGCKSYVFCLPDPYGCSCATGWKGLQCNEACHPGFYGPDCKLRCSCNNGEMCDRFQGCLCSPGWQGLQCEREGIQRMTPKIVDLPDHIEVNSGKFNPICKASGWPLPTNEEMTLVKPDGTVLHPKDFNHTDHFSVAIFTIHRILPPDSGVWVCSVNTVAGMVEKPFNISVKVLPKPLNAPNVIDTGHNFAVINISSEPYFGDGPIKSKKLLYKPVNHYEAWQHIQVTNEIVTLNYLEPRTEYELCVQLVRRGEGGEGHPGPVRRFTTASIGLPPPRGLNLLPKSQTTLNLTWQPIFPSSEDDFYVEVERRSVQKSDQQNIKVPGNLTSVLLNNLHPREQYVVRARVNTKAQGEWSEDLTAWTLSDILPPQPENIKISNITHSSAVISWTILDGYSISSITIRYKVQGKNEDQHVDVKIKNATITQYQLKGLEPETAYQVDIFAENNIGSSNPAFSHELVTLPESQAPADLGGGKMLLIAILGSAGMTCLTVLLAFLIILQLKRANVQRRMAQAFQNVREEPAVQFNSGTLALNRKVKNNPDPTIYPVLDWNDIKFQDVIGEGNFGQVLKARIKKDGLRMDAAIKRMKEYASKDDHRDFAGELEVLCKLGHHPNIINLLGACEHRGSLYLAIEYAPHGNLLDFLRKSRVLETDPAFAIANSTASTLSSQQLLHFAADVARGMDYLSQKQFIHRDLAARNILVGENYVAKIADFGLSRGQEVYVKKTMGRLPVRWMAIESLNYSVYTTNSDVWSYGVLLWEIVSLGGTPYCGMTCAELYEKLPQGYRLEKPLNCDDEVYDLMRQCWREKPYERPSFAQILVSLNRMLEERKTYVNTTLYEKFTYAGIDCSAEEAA
Outline: as §1

Row | Compound | protein level of α-smooth muscle actin (α-SMA) [1] | CHK2(I157T)(h) % activity (CHK2(I157T)(h)) [%] | DYRK2(h) % activity (DYRK2(h)) [%] | GRK7(h) % activity (GRK7(h)) [%] | IKKα(h) % activity (IKKα(h)) [%] | Lyn(h) % activity (Lyn(h)) [%] | SIK(h) % activity (SIK(h)) [%] | TSSK1(h) % activity (TSSK1(h)) [%] | Tie2(Y897S)(h) % activity (Tie2(Y897S)(h)) [%]
1 | CC(C)C[C@H](NC(=O)[C@H](C)NC(=O)[C@H](CCCCN)NC(=O)[C@H](C)NC(=O)[C@H](CCCNC(=N)N)NC(=O)[C@H](C)NC(=O)[C@H](CCC(N)=O)NC(=O)[C@H](CCCNC(=N)N)NC(=O)[C@H](C)NC(=O)[C@H](C)NC(=O)[C@H](C)NC(=O)[C@H](CCCNC(=N)N)NC(=O)[C@H](C)NC(=O)[C@@H](N)Cc1ccc(O)cc1)C(=O)N[C@@H](C)C(=O)N[C@@H](CCCNC(=N)N)C(=O)N[C@@H](CCC(N)=O)C(=O)N[C@@H](CC(C)C)C(=O)NCC(=O)N[C@H](C(=O)N[C@@H](C)C(=O)N[C@@H](C)C(=O)O)C(C)C [MMI-0100] (H-YARAAARQARAKALARQLGVAA-OH; N-terminus and C-terminus assumed) | decreases in the levels |  |  |  |  |  |  |  | 
2 | FAKLAARLYRKALARQLGVAA [MMI-0300] |  | 43 | 155 | 122 | 93 | 69 | 66 | 79 | 83
3 | KAFAKLAARLYRKALARQLGVAA [MMI-0400] |  | 41 | 195 | 100 | 87 | 3 | 68 | 79 | 87
4 | HRRIKAWLKKIKALARQLGVAA (Mammalian) [MMI-0500] |  | 3 | 127 | 93 | 50 | 31 | 40 | 46 | 80
5 | YARAAARQARAKALNRQLGVA (Mammalian) [MMI-0200] | no changes in the protein level | 85 | 142 | 124 |  | 98 |  | 98 | 85
